In article PMC5289646, “Proline Metabolism is Essential for Trypanosoma brucei brucei Survival in the Tsetse Vector” (PLoS Pathogens, 2017) one finds Km data, which are given here for one protein.

Substrate in data set [1]: O=C(O)C1CCC=N1
The data set can be described thus: cells, lysate or membranes. The note with it: 1 mM NAD+ (saturating), 20-600 μM P5C/γGS, potassium phosphate pH 7.2, 28°C, racemic substrate in equilibrium with open form, crude homogenate.

Substrate in data set [2]: NC(=O)c1ccc[n+]([C@@H]2O[C@H](COP(=O)(O)OP(=O)(O)OC[C@H]3O[C@@H](n4cnc5c(N)ncnc54)[C@H](O)[C@@H]3O)[C@@H](O)[C@H]2O)c1
Put plainly: cells, lysate or membranes. The note with it: 600 μM P5C/γGS (saturating), 0.01-2.5 mM NAD+, potassium phosphate pH 7.2, 28°C, crude homogenate, varied: cofactor.

B1: TbP5CDH (Trypanosoma brucei brucei TREU927) (protein)
chain: PPAVNERMDSFQPGSDSARGTLEACKRLRCGATDCPIVIGGKEYRTDNAINRMIPSSHQQQVAKGYNATPELAQKAIDTALGAAKEWSQMPFKDRAAIFLHAAHLISTKYRHELRAATMLGQSKNPFQAEIDVIAESCDFLRFSVKYAEELYNQQPISPASGPVWNALDYRPLEGFVSVIAPFNFSAIAANLVACPALMGNVILWKPSPNAVLSNYLLYKVFEEAGLPAGVVNFMPCEPKVMTEVVNSHPELAGVAFTGSTNVFLSINKQIYSRLEEYRNIPRISGETGGKDFHLIHPTADMKMTAALTVRGAFEYQGQKCSATSRIYVPQSRWEELKGYLLELHGKLKMGQPDDFQSFMCAVIDETAFDRNKKYIDIAKADSSAYTIIAGGGCDKSEGWFIQPTIIVAKDPNAQLLREEIFGPILTVHVYDDSKPDFWSEACNLVNNATKYALTGSIFAQDRKAIRDATEKHLRYAAGNYYINDKCTGAVVGQQPFGGARASGSNDKPGSALFLTRWVSARTIKENFDHSAQVSYPHQLPDYVTL
As for B1, the Km (as a rule, the substrate concentration at which the rate is half of its maximum) in data set [1] was 92.7 ± 14 µM; in data set [2], 380 ± 40 µM.
